Assay [1] deals with MacQ heterodimer consisting of an α-chain and a β-chain (wild-type, cleaved form) (Acidovorax sp. strain MR-S7). The experiment in a line: crystal structure; wild-type MacQ, ligand-free and with the reaction products C10 and PAA; crystals at 20 °C from 100 mM Tris-HCl pH 7.5–8.5, 0.1–0.2 M calcium acetate, 14–18% PEG 3350.
For assay [2] the target is unchanged. The experiment in a line: SEC; analytical gel filtration, Superose 6 10/300 GL, 50 mM sodium phosphate pH 8.0, 200 mM NaCl, 0.4 mL/min. In general terms: SEC sorts molecules by how far they enter the pores of the column.

The stoichiometry N is the number of molecules, sites or subunits per partner or assembly.

For the substance “MacQ heterodimer consisting of an α-chain and a β-chain (wild-type, cleaved form) (complex)”, the stoichiometry N in assay [1] and in assay [2] was 2 in each case.

(Values after paper PMC5566955.)
